This is an account of results in doi:10.1101/464495.

Data set [1] deals with Maltose binding protein (MBP) (UniProt P0AEX9 27-396). Briefly: size-exclusion chromatography. (In general: Size exclusion chromatography separates by hydrodynamic size, large species first.)
For another data set, the target named is T1, MBP-IE86 full length (human cytomegalovirus, UniProt P19893 1-580).
T1 sequence: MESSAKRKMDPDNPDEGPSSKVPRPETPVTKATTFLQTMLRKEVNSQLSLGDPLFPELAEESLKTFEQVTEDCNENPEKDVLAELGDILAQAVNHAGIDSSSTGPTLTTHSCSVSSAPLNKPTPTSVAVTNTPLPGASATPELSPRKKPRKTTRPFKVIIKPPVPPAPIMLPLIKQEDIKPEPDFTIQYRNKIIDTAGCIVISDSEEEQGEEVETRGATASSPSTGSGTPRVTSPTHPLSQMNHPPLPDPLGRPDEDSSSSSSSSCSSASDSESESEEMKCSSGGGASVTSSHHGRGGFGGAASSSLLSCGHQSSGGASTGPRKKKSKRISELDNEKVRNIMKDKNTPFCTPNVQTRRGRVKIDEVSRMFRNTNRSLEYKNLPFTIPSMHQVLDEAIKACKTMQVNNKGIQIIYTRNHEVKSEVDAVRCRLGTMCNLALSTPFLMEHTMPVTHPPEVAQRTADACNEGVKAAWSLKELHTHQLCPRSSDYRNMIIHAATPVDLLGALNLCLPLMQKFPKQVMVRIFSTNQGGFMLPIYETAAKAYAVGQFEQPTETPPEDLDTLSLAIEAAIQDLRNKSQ
The experiment in a line: size-exclusion chromatography.

B1: FDC (28bp, phosphorothioate) (dsDNA)
DNA 1: GACAGATCGTTTAGTGAACCGTACACGA
DNA 2: TCGTGTACGGTTCACTAAACGATCTGTC
modifications: four phosphorothioate bonds per strand (* in table)
Consider B1, for which the binding result in data set [1] is recorded as “no binding”; with MBP-IE86 full length, “binds”.
